Assay [1] has as its target T1, Ang-2 (R&D systems; 623-AN-025/CF) (human, UniProt O15123 19-496).
T1 sequence: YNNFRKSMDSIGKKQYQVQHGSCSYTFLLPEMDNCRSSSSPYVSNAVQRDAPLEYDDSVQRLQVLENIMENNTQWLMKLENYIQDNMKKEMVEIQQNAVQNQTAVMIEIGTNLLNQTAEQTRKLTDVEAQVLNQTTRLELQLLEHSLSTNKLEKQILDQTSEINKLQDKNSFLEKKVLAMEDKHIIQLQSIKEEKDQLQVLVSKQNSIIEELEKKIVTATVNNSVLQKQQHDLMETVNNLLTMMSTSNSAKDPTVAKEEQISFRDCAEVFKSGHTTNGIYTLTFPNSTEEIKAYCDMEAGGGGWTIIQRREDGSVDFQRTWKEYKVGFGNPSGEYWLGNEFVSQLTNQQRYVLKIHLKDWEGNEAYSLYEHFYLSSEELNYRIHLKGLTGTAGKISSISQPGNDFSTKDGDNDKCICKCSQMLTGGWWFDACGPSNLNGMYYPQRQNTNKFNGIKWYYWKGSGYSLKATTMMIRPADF
Briefly: cell-based or functional assay.

In assay [2] the target is mutant Ang-2 protein, A449 substituted with alanine (FLAG-tagged at N-terminal) (human) (UniProt O15123). Kind of assay: ELISA, antibody coated, 250 ng FLAG-tagged mutant Ang-2, anti-FLAG-HRP, OD450 relative to native Ang-2. (ELISA stands for enzyme-linked immunosorbent assay.)
Assay [3] deals with T2, integrin alphaVbeta1 (R&D systems) (human, UniProt P06756 31-992; P05556 21-728).
T2 construct: Bought heterodimer coated on an ELISA plate; also called αVβ1
T2 sequence (P06756 31-992 limits assumed, chain 1 of 2): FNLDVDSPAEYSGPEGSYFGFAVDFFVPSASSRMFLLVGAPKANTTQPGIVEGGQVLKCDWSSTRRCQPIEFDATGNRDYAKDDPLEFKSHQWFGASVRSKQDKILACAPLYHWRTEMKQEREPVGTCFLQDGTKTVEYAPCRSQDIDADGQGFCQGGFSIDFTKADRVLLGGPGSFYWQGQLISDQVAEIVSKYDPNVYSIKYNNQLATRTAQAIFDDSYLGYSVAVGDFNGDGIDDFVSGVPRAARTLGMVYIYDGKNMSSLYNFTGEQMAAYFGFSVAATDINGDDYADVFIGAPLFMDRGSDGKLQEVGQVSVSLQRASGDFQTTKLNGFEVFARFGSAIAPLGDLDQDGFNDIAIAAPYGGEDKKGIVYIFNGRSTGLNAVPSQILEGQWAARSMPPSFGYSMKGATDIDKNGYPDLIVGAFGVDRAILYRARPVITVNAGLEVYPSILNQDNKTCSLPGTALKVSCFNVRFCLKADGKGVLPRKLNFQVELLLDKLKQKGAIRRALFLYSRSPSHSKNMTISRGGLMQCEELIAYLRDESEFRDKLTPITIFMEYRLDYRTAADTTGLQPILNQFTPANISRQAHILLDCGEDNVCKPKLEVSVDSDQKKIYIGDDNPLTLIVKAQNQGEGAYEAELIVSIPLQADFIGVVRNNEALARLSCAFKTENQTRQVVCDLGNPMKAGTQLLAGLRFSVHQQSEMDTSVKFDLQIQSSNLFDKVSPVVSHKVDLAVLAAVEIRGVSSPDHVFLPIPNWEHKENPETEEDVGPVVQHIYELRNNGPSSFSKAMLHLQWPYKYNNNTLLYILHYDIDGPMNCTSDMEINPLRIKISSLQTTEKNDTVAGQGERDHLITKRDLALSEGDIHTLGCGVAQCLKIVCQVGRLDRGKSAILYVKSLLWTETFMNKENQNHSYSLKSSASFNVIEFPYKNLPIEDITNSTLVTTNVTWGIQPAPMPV
T2 sequence (P05556 21-728 limits assumed, chain 2 of 2): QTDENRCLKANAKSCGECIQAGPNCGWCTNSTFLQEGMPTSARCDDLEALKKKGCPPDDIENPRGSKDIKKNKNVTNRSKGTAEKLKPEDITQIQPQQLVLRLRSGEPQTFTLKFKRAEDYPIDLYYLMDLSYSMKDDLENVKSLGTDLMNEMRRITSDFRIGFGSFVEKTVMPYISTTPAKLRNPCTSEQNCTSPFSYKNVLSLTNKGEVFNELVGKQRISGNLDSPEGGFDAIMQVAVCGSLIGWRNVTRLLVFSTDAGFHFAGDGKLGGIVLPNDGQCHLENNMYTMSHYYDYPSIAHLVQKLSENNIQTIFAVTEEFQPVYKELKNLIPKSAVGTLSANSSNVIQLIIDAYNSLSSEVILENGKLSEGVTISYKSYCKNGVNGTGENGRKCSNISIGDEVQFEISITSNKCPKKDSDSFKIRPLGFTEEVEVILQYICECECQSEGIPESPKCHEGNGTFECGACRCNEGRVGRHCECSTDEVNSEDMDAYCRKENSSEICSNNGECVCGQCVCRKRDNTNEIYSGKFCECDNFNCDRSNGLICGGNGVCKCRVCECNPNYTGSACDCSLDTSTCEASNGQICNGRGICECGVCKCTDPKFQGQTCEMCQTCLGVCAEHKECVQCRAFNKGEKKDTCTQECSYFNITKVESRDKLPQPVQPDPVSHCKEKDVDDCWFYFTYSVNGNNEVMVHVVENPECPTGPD
Briefly: ELISA, integrin coated at 5 ug/ml, FLAG-Ang-2 10 ug/ml, anti-FLAG-HRP. Here is the method: (§1) An ELISA plate was coated with diluting solutions of three kinds of integrin (integrin; alpha5beta1 (α5β1; α5: NCBI Accession No. P08648, β1: NCBI Accession No. P05556), alphaVbeta1 (αVβ1; αV: NCBI Accession No. P06756, β1: NCBI Accession No. P05556), and alphaVbeta3 (αVβ3; αV: NCBI Accession No. P06756, β3: NCBI Accession No. P05106); R&D systems) proteins diluted in PBS at a concentration of 5 μg/ml (18 hours, 4° C.) and then blocked with 1% (v/v) BSA at a room temperature for 1 hour. Thereafter, the plate was treated with Ang-2 protein (FLAG-Ang-2, 0.1 ml of Ang-2 protein solution diluted in PBS at a concentration of 10 μg/ml) tagged with a FLAG sequence ([…], Sigma) at N-terminal, incubated at a room temperature for 2 hours, and washed five times with 0.05% PBST (0.05% (v/v) Tween-20-containing phosphate buffer saline). After that, an anti-FLAG antibody (Sigma) conjugated with horseradish peroxidase (HRP) was added to react, and the plate was washed again five times with PBST. Bindings between Ang-2 and the three kinds of integrins were identified indirectly by measuring the amounts of the anti-FLAG antibody remaining in the ELISA plate via color development reaction using TMB (3,3,5,5-tetramethylbenzidine) as a substrate of HRP. As a negative control, those that were blocked only (treated with BSA only) without Ang-2 protein treatment were used.

Assay [4] addresses T3, integrin alphaVbeta3 (R&D systems) (human, UniProt P06756 31-992; P05106 27-718).
T3 construct: Bought heterodimer coated on an ELISA plate; also called αVβ3; purified alphaVbeta3 protein
Described as above. Here is the method:
as §1

The target in assay [5] is T4, integrin alpha5beta1 (R&D systems) (human, UniProt P08648 42-995; P05556 21-728).
T4 construct: Bought heterodimer coated on an ELISA plate; also called α5β1
T4 sequence (P08648 42-995 limits assumed, chain 1 of 2): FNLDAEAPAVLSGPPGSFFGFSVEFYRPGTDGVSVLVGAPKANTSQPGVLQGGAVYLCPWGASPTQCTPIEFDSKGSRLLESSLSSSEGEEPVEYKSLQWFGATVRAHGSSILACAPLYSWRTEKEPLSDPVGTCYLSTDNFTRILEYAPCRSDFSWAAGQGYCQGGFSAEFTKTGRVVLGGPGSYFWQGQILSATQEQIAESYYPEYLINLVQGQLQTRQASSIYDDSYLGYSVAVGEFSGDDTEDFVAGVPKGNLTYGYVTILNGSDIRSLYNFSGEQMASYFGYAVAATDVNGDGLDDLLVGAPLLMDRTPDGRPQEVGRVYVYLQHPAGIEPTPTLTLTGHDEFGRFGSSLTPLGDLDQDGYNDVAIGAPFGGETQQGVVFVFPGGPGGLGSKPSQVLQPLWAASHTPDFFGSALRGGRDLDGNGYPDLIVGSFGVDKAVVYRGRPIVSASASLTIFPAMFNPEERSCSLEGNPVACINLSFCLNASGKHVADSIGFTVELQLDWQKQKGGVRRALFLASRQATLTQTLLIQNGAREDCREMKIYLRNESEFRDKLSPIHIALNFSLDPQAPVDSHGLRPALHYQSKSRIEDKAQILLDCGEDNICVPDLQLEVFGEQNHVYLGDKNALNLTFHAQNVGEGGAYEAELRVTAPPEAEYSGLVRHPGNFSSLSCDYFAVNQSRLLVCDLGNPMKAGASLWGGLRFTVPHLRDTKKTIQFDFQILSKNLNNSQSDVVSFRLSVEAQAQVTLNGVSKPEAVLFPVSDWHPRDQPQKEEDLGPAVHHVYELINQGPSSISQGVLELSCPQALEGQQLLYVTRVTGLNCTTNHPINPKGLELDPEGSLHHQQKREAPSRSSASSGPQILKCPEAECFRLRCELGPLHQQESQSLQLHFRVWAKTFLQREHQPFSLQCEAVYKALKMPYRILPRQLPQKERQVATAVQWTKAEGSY
T4 sequence (P05556 21-728 limits assumed, chain 2 of 2): as the sequence (P05556 21-728 limits assumed, chain 2 of 2) above
The description is as above. The protocol: as §1

T3 sequence (P06756 31-992 limits assumed, chain 1 of 2): as the sequence (P06756 31-992 limits assumed, chain 1 of 2) above
T3 sequence (P05106 27-718 limits assumed, chain 2 of 2): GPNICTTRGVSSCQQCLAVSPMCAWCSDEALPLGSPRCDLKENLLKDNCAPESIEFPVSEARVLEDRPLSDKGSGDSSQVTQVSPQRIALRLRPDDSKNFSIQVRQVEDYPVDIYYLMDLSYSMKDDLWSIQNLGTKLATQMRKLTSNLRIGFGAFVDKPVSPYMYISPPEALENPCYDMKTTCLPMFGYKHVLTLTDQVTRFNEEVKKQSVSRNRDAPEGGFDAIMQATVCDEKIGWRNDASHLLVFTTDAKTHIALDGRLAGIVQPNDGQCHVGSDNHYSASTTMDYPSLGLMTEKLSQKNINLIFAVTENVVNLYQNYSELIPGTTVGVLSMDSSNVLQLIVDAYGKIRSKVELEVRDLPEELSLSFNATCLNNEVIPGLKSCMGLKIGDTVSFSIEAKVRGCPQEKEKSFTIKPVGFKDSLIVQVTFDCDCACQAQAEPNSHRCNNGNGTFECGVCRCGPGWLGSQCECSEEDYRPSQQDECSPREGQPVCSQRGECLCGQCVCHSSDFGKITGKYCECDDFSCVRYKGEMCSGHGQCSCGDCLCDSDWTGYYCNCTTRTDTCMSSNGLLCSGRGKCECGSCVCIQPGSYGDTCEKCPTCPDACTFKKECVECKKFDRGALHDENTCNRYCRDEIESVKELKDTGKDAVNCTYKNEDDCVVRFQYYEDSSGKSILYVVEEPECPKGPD

B1: SAIT-Ang-2-AB-m7F8 (antibody, V domains shown)
VH: DVQLQESGPGLVKPSQSLSLTCTVTGYSITSDYAWNWIRQFPGNKLEWMGYISYSGSTSYNPSLKSRISITRDTSKNQFFLQLNSVTPEDTATYYCARSTFGHYVSSMDYWGQGTSVTVSS
VL: SIVMTQTPKLLLVSAGDRVTITCKASQSASNDVAWYQQKPGQSPKLLIYYASNRYTGVPDRFTGSGYGTDFTFAISTVQAEDLAIYFCQQDYSSPPTFGGGTKLEIK
Turning to B1, in assay [1], the “Ang-2-depedent Cell Adhesion Degree (%)” value is 35.1%. Also, the % at RBD binding (mutant Ang-2 against native Ang-2) in assay [2] was determined as 94.1%.

B2: FLAG-tagged hAng-2 (ligand)
chain: DYKDDDDKYNNFRKSMDSIGKKQYQVQHGSCSYTFLLPEMDNCRSSSSPYVSNAVQRDAPLEYDDSVQRLQVLENIMENNTQWLMKLENYIQDNMKKEMVEIQQNAVQNQTAVMIEIGTNLLNQTAEQTRKLTDVEAQVLNQTTRLELQLLEHSLSTNKLEKQILDQTSEINKLQDKNSFLEKKVLAMEDKHIIQLQSIKEEKDQLQVLVSKQNSIIEELEKKIVTATVNNSVLQKQQHDLMETVNNLLTMMSTSNSAKDPTVAKEEQISFRDCAEVFKSGHTTNGIYTLTFPNSTEEIKAYCDMEAGGGGWTIIQRREDGSVDFQRTWKEYKVGFGNPSGEYWLGNEFVSQLTNQQRYVLKIHLKDWEGNEAYSLYEHFYLSSEELNYRIHLKGLTGTAGKISSISQPGNDFSTKDGDNDKCICKCSQMLTGGWWFDACGPSNLNGMYYPQRQNTNKFNGIKWYYWKGSGYSLKATTMMIRPADF
notes: also called FLAG-Ang-2
For the molecule B2, the binding result in assay [3], in assay [4] and in assay [5] was “binds” in each case.

Source of the values: patent US20150010572A1 (SAMSUNG ELECTRONICS, published 2015).
